# Assay results as given in publication PMC10675231, “Electrochemiluminescence Aptasensor with Dual Signal Amplification by Silica Nanochannel-Based Confinement Effect on Nanocatalyst and Efficient Emitter Enrichment for Highly Sensitive Detection of C-R”.
# Legend:
# C-reactive protein (CRP) [1] = molecular target: T1, C-reactive protein (CRP) (human, UniProt P02741 19-224); test: electrochemiluminescence aptasensor; no significant signal change; 0.01 M phosphate buffer (KH2PO4/Na2HPO4) pH 7.4; CRP incubation 80 min; binding temperature not stated; settings: protein: recombinant; chain copies: 5
# T1 sequence: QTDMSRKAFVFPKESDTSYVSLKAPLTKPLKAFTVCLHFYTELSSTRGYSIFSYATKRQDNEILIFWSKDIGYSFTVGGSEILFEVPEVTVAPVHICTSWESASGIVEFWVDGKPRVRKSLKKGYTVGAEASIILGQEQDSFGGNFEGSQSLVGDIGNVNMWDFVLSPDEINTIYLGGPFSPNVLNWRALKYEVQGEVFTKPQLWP
# alpha-fetoprotein (AFP) = molecular target: T2, alpha-fetoprotein (AFP) (UniProt P02771 19-609); test: electrochemiluminescence aptasensor; 100 ng/mL AFP; change very minimal vs 10 ng/mL CRP; 0.01 M phosphate buffer (KH2PO4/Na2HPO4) pH 7.4; CRP incubation 80 min; binding temperature not stated; settings: protein: commercial
# T2 sequence: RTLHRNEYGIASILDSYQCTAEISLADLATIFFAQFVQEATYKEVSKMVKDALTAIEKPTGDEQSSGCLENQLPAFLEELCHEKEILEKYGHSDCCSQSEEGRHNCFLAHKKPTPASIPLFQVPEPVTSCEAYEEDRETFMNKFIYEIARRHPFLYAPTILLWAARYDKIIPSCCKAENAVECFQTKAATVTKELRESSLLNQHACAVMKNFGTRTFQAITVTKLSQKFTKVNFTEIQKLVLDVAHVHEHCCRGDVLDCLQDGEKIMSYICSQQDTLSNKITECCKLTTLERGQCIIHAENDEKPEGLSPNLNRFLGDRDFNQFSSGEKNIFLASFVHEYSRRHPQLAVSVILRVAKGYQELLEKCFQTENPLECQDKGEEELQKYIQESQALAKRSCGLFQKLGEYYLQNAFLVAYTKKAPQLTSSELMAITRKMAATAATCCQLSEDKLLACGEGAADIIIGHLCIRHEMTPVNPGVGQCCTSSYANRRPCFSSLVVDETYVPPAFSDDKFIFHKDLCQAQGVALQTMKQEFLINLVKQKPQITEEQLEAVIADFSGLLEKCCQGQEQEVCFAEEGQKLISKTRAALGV
# [2] = molecular target: cancer antigen 15-3 (CA15-3) (UniProt P15941 24-1097); test: electrochemiluminescence aptasensor; 100 ng/mL CA15-3; change very minimal vs 10 ng/mL CRP; 0.01 M phosphate buffer (KH2PO4/Na2HPO4) pH 7.4; CRP incubation 80 min; binding temperature not stated; settings: protein: commercial
# cancer antigen 15-3 (CA15-3), sequence (P15941 24-1097): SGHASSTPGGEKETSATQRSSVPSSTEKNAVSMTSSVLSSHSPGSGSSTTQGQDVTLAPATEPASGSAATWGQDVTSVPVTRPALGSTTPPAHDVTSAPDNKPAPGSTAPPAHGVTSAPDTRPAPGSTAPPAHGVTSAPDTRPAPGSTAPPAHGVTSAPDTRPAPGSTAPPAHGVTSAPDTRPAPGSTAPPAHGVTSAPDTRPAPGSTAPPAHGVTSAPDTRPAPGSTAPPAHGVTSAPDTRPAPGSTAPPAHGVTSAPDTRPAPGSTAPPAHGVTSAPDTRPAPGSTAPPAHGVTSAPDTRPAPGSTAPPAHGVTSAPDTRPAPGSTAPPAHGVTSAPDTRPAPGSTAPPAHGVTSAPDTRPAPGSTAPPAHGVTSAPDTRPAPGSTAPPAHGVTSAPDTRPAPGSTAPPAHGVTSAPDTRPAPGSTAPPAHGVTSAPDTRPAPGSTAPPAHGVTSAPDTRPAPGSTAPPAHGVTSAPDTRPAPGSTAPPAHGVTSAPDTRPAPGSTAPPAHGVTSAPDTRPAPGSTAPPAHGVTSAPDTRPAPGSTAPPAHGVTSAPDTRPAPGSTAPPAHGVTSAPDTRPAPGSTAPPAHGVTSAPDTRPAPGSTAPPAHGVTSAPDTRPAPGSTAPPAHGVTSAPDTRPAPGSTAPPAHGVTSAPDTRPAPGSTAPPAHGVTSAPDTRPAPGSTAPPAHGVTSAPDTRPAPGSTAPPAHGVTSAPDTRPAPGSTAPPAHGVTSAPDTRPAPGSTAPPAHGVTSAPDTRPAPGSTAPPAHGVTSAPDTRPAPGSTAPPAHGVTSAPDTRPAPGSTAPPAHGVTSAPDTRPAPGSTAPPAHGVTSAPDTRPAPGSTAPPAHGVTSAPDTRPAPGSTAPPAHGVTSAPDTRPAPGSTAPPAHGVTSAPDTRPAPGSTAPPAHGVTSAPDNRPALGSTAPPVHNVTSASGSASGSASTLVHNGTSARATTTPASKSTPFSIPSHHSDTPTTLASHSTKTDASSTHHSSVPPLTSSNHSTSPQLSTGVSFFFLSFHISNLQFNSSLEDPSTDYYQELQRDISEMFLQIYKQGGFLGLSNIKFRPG
# C-reactive protein (CRP) [3] = molecular target: T1, C-reactive protein (CRP); test: electrochemiluminescence aptasensor; Ru(bpy)3 2+/TPrA; BSA-blocked; linear 10 pg/mL-1 ug/mL, LOD 7.4 pg/mL; 0.01 M phosphate buffer (KH2PO4/Na2HPO4) pH 7.4; CRP incubation 80 min; binding temperature not stated; settings: protein: recombinant; chain copies: 5
Binder,binding result (C-reactive protein (CRP) [1]),binding result (alpha-fetoprotein (AFP)),binding result [2],binding result (C-reactive protein (CRP) [3])
"GTTGGGCACGTGTTGTCTCTCTGTGTCTCGTGCCCTTCGCTAGGCCCACA (ssDNA, 3'-NH2 (sequence line; text also says 5' amino)) [AFB1 aptamer]",no binding,,,
"CGAAGGGGATTCGAGGGGTGATTGCGTGCTCCATTTGGTG (ssDNA, 5'-NH2) [CRP aptamer]",,no binding,no binding,binds
"ATACCAGCTTATTCAATT (ssDNA, 3'-NH2 (sequence line; text also says 5' amino)) [CEA aptamer]",no binding,,,
"ATTAAAGCTCGCCATCAAATAGCTGC (ssDNA, 5'-NH2) [PSA aptamer]",no binding,,,
